The text below walks through data of paper PMC4081048.

The assay addresses T1, GST-NHERF1-PDZ2 (PDZ2 domain of Na+/H+ exchanger regulatory factor 1 fused to GST).
T1 sequence (O14745 whole entry, species assumed, looked up): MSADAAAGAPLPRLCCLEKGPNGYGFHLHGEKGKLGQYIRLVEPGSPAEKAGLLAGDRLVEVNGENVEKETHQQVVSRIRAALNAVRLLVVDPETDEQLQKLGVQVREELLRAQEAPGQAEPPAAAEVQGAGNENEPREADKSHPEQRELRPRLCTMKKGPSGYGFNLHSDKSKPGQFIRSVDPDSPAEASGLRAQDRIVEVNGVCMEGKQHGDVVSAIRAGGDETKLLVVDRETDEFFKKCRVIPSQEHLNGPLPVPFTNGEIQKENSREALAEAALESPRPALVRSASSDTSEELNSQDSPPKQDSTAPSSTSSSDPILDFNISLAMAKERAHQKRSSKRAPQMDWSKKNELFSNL
As to the kind of experiment: AlphaScreen or HTRF.

The IC50 is the concentration that gives 50% inhibition. A high value points to weaker potency in that assay.

Turning to “Flag-ΔF508 CFTR (CFTR with deletion of phenylalanine at residue 508) (from UniProt P13569 1-1480) (natural protein)”, the concentration for half-maximal inhibition (IC50) was 442 nM.
As for “Flag-WT CFTR (cystic fibrosis transmembrane-conductance regulator, wild type) (from UniProt P13569 1-1480) (natural protein)”, the figure is 89.3 nM.
